The series is described as follows: label from the status in PepcDB records.
“MNIEIKDTLISEEQLQEKVKELALQIERDFEGEEIVVIAVLKGSFVFAADLIRHIKNDVTIDFISASSYGNQTETTGKVKLLKDIDVNITGKNVIVVEDIIDSGLTLHFLKDHFFMHKPKALKFCTLLDKPERRKVDLTAEYVGFQIPDEFIVGYGIDCAEKYRNLPFIASVVTEESYNLKSR”: the protein production result is listed as “not failed”.

In the case of “MPSENPIGKTMKSIDEQSLHNARRLFESGDIDRIEVGTTAGLQQIHRYLFGGLYDFAGQIREDNISKGGFRFANAMYLKEALVKIEQMPERTFEEIIAKYVEMNIAHPFLEGNGRSTRIWLDLVLKKNLKKVVNWQNVSKTLYLQAMERSPVNDLELRFLLKDNLTDDVDNREIIFKGIEQSYYYEGYEKG”, the protein production result was “not failed”.

“MTDQSVRIIEAALRLYMKKPPHEVSIEEIAREAKVSKSLIFYHFESKQKLLEEAVMHAFRKMMEEFNPRSVEEVVDYGIGFIAERREFIEFMMYALSQVRIEELERMFGEALEKVASLFEGCRHPRETAIALMAMLDGLSIYSLYFDLGKLEKYREIAMEFVESRRVRA”: the protein production result is “not failed”.

In the case of “MTTEAPIWPAELFEDLDRNGPIPLYFQVAQRLEDGIRSGVLPPGARLENEISVAKHLNVSRPTVRRAIQEVVDKGLLVRRRGVGTQVVQSHVTRPVELTSFFNDLKNANLDPKTRVLEHRLLAASSAIAEKLGVSAGDEVLLIRRLRSTGDIPVAILENYLPPAFNDVSLDELEKGGLYDALRSRGVVLKIANQKIGARRAVGEESTLLDIEDGGPLLTVERVALDNSGQVIELGSHCYRPDMYNFETTLVAR”, the protein production entry is “not failed”.

Consider “MPLGHLFDKSYDEMHCNQKNWEMAERKLMEDAVQSALSKQNLKKEDIDIFLAGDLLNQNVTANYVARHLKIPFLCLFGACSTSMESIAISSALIDGGFAKRALAATSSHNATAERQFRYPTEYGGQKPGTATSTVTGSGAVVLSQQPGGIKITSATVGRVIDLGITDSQDMGSAMAPAAADTIKQHLEDLGRTPDDYDLILTGDLSGVGSPILKDLLKEEGINVGTKHNDCGLMIYTPDQQVFAGGSGCACSAVVTFAHIFKEIEAGRLNRVLVVATGALLSPTIIQQKESIPCIAHGVVFERAERGNALEHHHHHH”, for which the protein production result was “not failed”.

With “MKVLREDEESEIVKQFLDDNNSVIVDFDPIDLYEAVHPPFSIRLSIDRISAMPLSILRRRAAAFVSDPQTLSKLLNNDIAGKFDFIYDNSNRSWQKYYPFSYYRSINAADLYENIKAYTVLDVREPFELIFGSIANSINIPISELREKWKILERDKKYAVICAHGNRSAAAVEFLSQLGLNIVDVEGGIQSWIEEGYPVVYGRESAED”, the protein production entry is “failed”.

With “MKSILDGLADTTFRTITTDLLYVGSNDIQYEDIKGDMASKLGYFPQKFPLTSFRGSPFQEKMTAGDNPQLVPADQVNITEFYNKSLSSFKENEENIQCGENFMDIECFMVLNPSQQLAIAVLSLTLGTFTVLENLLVLCVILHSRSLRCRPSYHFIGSLAVADLLGSVIFVYSFIDFHVFHRKDSRNVFLFKLGGVTASFTASVGSLFLTAIDRYISIHRPLAYKRIVTRPKAVVAFCLMWTIAIVIAVLPLLGWNCEKLQSVCSDIFPHIDETYLMFWIGVTSVLLLFIVYAYMYILWKAHSHAVRMIQRGTQKSIIIHTSEDGKVQVTRPDQARMDIRLAKTLVLILVVLIICWGPLLAIMVYDVFGKMNKLIKTVFAFCSMLCLLNSTVNPIIYALRSKDLRHAFRSMFPSCEGTAQPLDNSMGDSDCLHKHANNAASVHRAAESCIKSTVKIAKVTMSVSTDTSAEAL”, the protein production result is recorded as “not failed”.

Turning to “MSLARTEKIYIYGASGHGLVCEDVAKNMGYKECIFLDDFKGMKFESTLPKYDFFIAIGNNEIRKKIYQKISENGFKIVNLIHKSALISPSAIVEENAGILIMPYVVINAKAKIEKGVILNTSSVIEHECVIGEFSHVSVGAKCAGNVKIGKNCFLGINSCVLPNLSLADDSILGGGATLVKNQDEKGVFVGVPAKRMEGGSHHHHHH”, the protein production result is reported as “not failed”.

Consider “MMHSTVQHGGNKSGKSNVWANTNLAKTVAAVDEFKFGFPSGGLTTVSNKWWGRAEKGGREDGGGENTENGHVAACDETQNSLVAIRKRIAEEGREAVELGLHQGFGSKRPGKRDQALLFQIFNSAMPKDWVTPDSS”, for which the protein production entry was “failed”.

“MSALRILARFVSTRTLRIRPILEIPARCKYTQHQGVKGIRNRKSFFEAQIQAGQQGEEDADLERTANSDLADMRFLDDRAYDEVAGGAMRITRDIASSQQVLILQPYVKWAAKRQNAPVDVRPEDQLAEATALIHSLPNWQVARALKVPLESLEKKTLFGSGKLVELKELVAELRQERHLTCLFVSKGTLSFAQKRFLEAEFRLPVMDRYSVVIQILRLHATSAEAKLQVAMAELPYIWAQAKDASVTQTRRQGYALTDLQKEILRTRERKLRAELDRVRRQRQLLRQKRKQQNYPIVAVVGYTNAGKTSLIKALTVEDALQPRNQLFATLDVTAHAGCLPCNLEVIYMDTVGFMSDLPTGLFECFVATLEDAMLADVIVHVQDLSHPCHAAQRSHVEATLRSLAFNVAGGDSTASQLPPIINVYNKCDLVSQEAQSSADPVHHISARAQTGLEPLLDDIEQQILTATGRRKLQMRVPSGGPEMAWLYKNAAVVETTADAENPERLMMHVVISQRTLDQFKRQFCR”: the protein production result is reported as “failed”.

Take “MEKRLDYITDLMALGPTANARTIQRRQTAHRLAIAEAWQVKPGEKILEIGCGQGDLSAVLADQVGSSGHVTGIDIASPDYGAPLTLGQAWNHLLAGPLGDRLTVHFNTNLSDDLGPIADQHFDRVVLAHSLWYFASANALALLFKNMAAVCDHVDVAEWSMQPTALDQIGHLQAAMIQGLLYAIAPSDVANIRTLITPDTLAQIAHDNTWTYTAGTIVEDPTLDDAHWEIATTNALLTELKLSTDLRDRVKPLLEAMSHNGTASLATFTGRITF”: the protein production result was “not failed”.

For the sequence “MSLSWEIEELDREIGKIKKHSLILIHEEDASSRGKDILFYILSRKLKSDNLVGMFSISYPLQLIIRILSRFGVDVIKYLENHRLAIVDTFGSFHGIKATMPGVWYLEGMLSSETLPIKYAKAVEDHKKVWMDLNLFEGRELYGFAISMSGYLEVFTPEETLRYLETSAEVRYGHPAYKKYPRGTNFWLWEGVKDKRVLLSVYRRADYVLKTRSSLGENGIKRELLVIKTPKPIEELVRFEYEFKGNEPKLRREGHHHHHH”, the protein production entry is listed as “not failed”.

Consider “MDDSKSSYKLGLFVVSALVSLFVVLFILGGRSLFEPKIIVETYFDESVSGLEVGAPVRFRGITAGEVVSIELSDALYEAAVPRENRKSYVVVRSEITGAKRTIEEWNRSIEISIERGLRATTQLAGITGQQYLSFDYTSMDEGLSFNWKPNYPYVPSTKSSAGKIVSGIQSLIARLDEADINTLVANINMLIETLNQSISALDADALNAQLLALLINSNQMVKSVDGVISDPEVKEIVSSLAQISKSLNSSLKDKGDINKLIKHLDRAAVRLDVIMADNQSDINYVIKDLRVTVENLKSFSETLKNQPSSIIFSSEPEKLKIN”, for which the protein production result is “failed”.

On to “MFSSSYSNLPPLPHRLFLLLTVIWAGSLWTIGYLVAPTLFSVLPSRETAGMIAGHLFRYEAILGMTVGVLQLVLCNVLIRRGAERYRSLRWIVLTMLVCVLAGYFGVQPFMEGLKVKAQALNLGVSESPYKAEFGMLHGVSSVIYLVQSVLALVLVWRASAPR”, for which the protein production entry was “failed”.

In the case of “MAELAANDIDSALRWLERAIDHDPEYSSAYAALGDIYQRTNDPVEADYCLRMALRCSPDSSEILHKLARNCVTLGNRSEALALLREAKDRHSGSVDFLSQLALIYDDLDETDLAICTWEEVIALNPLDASAHNNLGLQWHYGKGDVDKALDCFMRALQLNPCLTEARFNLYQAKADAGKVDEALAGFESMLAEPFREEVMFHRSIMLLKNRRFGEGWREYHLRWRYRGTQSRSFPFPNWDGQPCTGKTLLVYGEQGLGDEIMFASCLRDLHEKTGAKIVLECNTRLESLFRRSFPGITVIGRSSAQTSADGLASGATIDFQTAIGDLPGMFRAEEAAFPNHRGYLVADPKRVTFWKDRLAALGEGPKIGISWRGGQGKTRREARSIPLQEWHPILAAEGRHFVSLQYTDCRQELQALEEQHGIVIHHWQEAIDDYDETAALVMALDKVITVCTSIVHLTGALGRPAWVLVPRVPEWRYLASGETMPWYPSVRLFRQPRAGDWAPVLRDIAWKLGTVARRVDHDLG”, the protein production entry is “failed”.

For the sequence “MTQSLFDFSAYFKFFIGLFALVNPVGIIPVFISMTSYQPAAVRNKTNLTANLSVAIILLTSLFLGDGILQIFGISIDSFRIAGGILVVTIAMSMISGKLGEDKQNKQEKSETAVRESIGVVPLALPLMAGPGAISSTIVWGTRYHSWVHLVGFSLAIAVFALCCWGIFRMAPWLVRLLGQTGINVITRIMGLLLMALGIEFIVTGIKALFPGLLS”, the protein production entry is recorded as “failed”.

As to “MKRVAIFASGSGTNAEAIIQSQKAGQLPCEVALLITDKPGAKVVERVKVHEIPVCALDPKTYPSKEAYEIEVVQQLKEKQIDFVVLAGYMRLVGPTLLGAYEGRIVNIHPSLLPAFPGLHAIEQAIRANVKVTGVTIHYVDEGMDTGPIIAQEAVSIEEEDTLETLTTKIQAVEHRLYPATLHKLLSK”, the protein production entry is given as “not failed”.

With “MPSYGNLGRLGGRHEYGVLVAMTSSAELDRVRWAHQLRSYRIASVLRIGVVGLMVAAMVVGTSRSEWPQQIVLIGVYAVAALWALLLAYSASRRFFALRRFRSMGRLEPFAFTAVDVLILTGFQLLSTDGIYPLLIMILLPVLVGLDVSTRRAAVVLACTLVGFAVAVLGDPVMLRAIGWPETIFRFALYAFLCATALMVVRIEERHTRSVAGLSALRAELLAQTMTASEVLQRRIAEAIHDGPLQDVLAARQELIELDAVTPGDERVGRALAGLQSASERLRQATFELHPAVLEQVGLGPAVKQLAASTAQRSGIKISTDIDYPIRSGIDPIVFGVVRELLSNVVRHSGATTASVRLGITDEKCVLDVADDGVGVTGDTMARRLGEGHIGLASHRARVDAAGGVLVFLATPRGTHVCVELPLKR”, the protein production entry is “failed”.

With “MMHHALHIKNGIVIDPKNGVKAEKMDIFVKNGKIVEESEVKGEDVKVIDANNKLVVAGGVDMHAHIAGSKINTGRTMRPEEMRVVRNIAGKFRAAVGRVLEHHHHHH”, the protein production entry is on record as “not failed”.

For the sequence “MNVLRPTLLTLACLLASPGFADDLPSLGDASSAIVSPQQEYQLGRAWLALLRSQVSQLNDPQLKDYVETSVYKLVETSQVNDRRLEFILINSPQLNAFAAPGGIIGVNGGLFLNAQTEGEYASVLAHELAHLSQRHFARGVEAQQRMQVPMMAALLAGIVIAAAGAGDAGIATIAGTQAAAIQEQRRFSRQNEQEADRIGILNLEKAGYDPRSMPTMFERLMRQYRFDAKPPEFLLTHPVTESRIADTRNRAEQARQGGTEDSLRYQLIRARVQLTYEESPGLAAKRFRAQLDENPKNDIARYGLAIAQIKGSQWNEARENLKPLLAKSPNDVTYNLAQIELDMANSRLPDAQTRVERMLNLYPGNYPLNQIRVDLLLKQNRPADAEKALEGLLKSRPDDPDVWYLVAETRGLSGNIIGLHQARAEYFALVGDYRQAIQQLDFAKRRAGSNFPLSSRIDARQREMMDQEQMVKDMMRLEHHHHHH”, the protein production entry was “not failed”.

In the case of “MMNRILLIFLILMSTCFAGCFEQNNLEKSQEMAEIGFAYIGIDNDKAIEYYEKAIKLNPDDANAISFLGTLYDGEGDREKAYEYLTKALEMEPKNPWMYYNLGLYYLNHDDNMAIGCFEKALRIDPENECCWSQLGYTYYDIGDYTNSKLNFEKAYEINPKDQYSDMIEKCNEGI”, the protein production result is given as “failed”.

The values above are taken from a protein production outcome set (Wang et al. 2014).
